Values quoted from earlier work as cited in publication PMC10215522.

Biological target: TFPI2 (Homo sapiens) (UniProt P48307)
UniProt P48307, sequence (P48307 23-235): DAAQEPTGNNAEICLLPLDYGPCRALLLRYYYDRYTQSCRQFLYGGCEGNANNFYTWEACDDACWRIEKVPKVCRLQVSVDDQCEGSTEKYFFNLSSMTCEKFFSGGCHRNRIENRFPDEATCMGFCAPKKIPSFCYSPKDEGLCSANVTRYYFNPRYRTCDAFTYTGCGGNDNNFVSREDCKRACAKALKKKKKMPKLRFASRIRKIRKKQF

gC1qR (from UniProt Q07021)
Kd: 70 nM
